Numbered stars: 1 amine (or outer) side, 2 acyl side, 3 side chain; on linkers, the order of the positions; unused ones are H or OH. Bridge positions count the residues as written; N and C are the ends. * marks the point of attachment. thioacetal = thioacetal linkage between two cysteines (intrachain bond at the bracketed Cys); C20 diacid = O=C(O)CCCCCCCCCCCCCCCCCCC(=O)*; γGlu = O=C(O)[C@H](CCC(=O)[*:2])N[*:1]
T1: rat NPRA (rat, UniProt P18910 29-1057)
T1 sequence (looked up): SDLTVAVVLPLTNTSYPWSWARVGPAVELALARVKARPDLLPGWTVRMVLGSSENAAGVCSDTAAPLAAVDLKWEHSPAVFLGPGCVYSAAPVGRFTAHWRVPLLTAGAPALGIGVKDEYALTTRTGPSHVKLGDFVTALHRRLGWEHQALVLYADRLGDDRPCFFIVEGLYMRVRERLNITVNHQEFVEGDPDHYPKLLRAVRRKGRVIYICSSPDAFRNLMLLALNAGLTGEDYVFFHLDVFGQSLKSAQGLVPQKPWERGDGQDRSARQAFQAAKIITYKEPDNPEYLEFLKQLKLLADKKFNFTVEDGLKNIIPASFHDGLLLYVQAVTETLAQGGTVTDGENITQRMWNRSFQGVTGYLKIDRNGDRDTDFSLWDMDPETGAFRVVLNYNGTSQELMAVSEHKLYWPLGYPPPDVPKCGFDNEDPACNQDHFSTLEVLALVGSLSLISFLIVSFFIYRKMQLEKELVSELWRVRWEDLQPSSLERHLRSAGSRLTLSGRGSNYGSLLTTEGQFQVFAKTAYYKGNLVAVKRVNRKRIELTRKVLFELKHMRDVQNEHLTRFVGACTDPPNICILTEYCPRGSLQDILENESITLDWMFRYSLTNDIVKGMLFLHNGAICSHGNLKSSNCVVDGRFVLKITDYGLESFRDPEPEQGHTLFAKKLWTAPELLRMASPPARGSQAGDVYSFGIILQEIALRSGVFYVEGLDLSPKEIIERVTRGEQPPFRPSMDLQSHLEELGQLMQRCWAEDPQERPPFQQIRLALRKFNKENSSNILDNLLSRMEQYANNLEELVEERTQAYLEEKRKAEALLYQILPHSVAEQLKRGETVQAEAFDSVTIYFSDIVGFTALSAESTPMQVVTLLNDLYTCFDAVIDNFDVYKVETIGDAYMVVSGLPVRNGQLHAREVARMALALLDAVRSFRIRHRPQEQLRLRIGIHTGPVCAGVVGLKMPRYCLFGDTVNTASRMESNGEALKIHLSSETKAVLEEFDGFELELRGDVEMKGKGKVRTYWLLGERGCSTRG

T2: human NPRA (human, UniProt P16066 33-1061)
T2 sequence (looked up): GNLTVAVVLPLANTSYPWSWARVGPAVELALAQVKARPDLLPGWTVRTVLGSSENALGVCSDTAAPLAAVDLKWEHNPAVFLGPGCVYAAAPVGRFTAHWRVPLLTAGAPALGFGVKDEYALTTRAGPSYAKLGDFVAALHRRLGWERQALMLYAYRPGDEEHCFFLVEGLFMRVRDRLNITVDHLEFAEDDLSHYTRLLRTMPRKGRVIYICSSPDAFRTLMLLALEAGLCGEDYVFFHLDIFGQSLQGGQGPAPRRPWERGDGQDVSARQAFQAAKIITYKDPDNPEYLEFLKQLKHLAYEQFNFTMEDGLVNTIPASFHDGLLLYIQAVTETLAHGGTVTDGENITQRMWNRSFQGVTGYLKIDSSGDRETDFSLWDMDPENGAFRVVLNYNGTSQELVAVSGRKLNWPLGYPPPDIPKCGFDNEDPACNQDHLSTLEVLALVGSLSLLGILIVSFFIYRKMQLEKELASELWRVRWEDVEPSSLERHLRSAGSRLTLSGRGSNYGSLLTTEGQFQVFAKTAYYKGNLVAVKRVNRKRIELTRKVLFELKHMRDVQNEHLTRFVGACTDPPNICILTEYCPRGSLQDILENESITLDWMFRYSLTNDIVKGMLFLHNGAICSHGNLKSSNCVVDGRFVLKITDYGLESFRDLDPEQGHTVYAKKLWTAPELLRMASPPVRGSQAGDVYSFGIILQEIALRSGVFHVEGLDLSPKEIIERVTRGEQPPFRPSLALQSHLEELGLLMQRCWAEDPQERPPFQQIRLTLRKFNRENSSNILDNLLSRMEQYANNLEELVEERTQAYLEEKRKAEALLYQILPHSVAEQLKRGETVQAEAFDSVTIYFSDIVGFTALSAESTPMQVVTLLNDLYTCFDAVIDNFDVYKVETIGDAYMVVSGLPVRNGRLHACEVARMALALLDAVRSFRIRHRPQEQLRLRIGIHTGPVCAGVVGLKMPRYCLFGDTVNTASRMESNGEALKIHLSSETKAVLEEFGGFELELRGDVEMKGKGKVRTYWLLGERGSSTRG


Legend:
rat NPRA = target: T1, rat NPRA; test: cell-based or functional assay
human NPRA = target: T2, human NPRA; test: cell-based or functional assay

Row | Binder | cGMP Assay (EC50, pM) w/BSA, rNPRA (rat NPRA) | cGMP Assay (EC50, pM) w/Casein, rNPRA (rat NPRA) | cGMP Assay (EC50, pM) w/BSA, hNPRA (human NPRA) | cGMP Assay (EC50, pM) w/Casein, hNPRA (human NPRA)
1 | SXRRSSCFGKRIDRIGHYSGLGCPSFRHGGKSSGAPPPS (N-terminus acylated with HOOC-(CH2)18-CO-(γGlu)-; PEG24 after EKEKEKG; 4Pal; thioacetal linkage between the two bracketed Cys; C-terminal amide) [HOOC-(CH2)18-CO-(γGlu)-EKEKEKG-PEG24-S-4Pal-RRSS[CFGKRIDRIGHYSGLGC]PSFRHGGKSSGAPPPS-NH2] | 89100 pM | 5320 pM | 2210 pM | 580 pM
2 | EKXRSSCFGKRIDRIGHQSGLGCPSFRHGSPSSGAPPPS (N-terminus acylated with HOOC-(CH2)18-CO-(γGlu)-; (AEEA)6 after EKEKEKG; βAla; thioacetal linkage between the two bracketed Cys; C-terminal amide) [HOOC-(CH2)18-CO-(γGlu)-EKEKEKG-(AEEA)6-EK-βAla-RSS[CFGKRIDRIGHQSGLGC]PSFRHGSPSSGAPPPS-NH2] | 623000 pM | 17900 pM | 12800 pM | 493 pM
3 | SXRRSSCFGKRIDRIGHYSGLGCPSFRHGSPSSGAPPPS (N-terminus acylated with HOOC-(CH2)18-CO-(γGlu)-; (AEEA)6 after EKEKEKG; 4Pal; thioacetal linkage between the two bracketed Cys; C-terminal amide) [HOOC-(CH2)18-CO-(γGlu)-EKEKEKG-(AEEA)6-S-4Pal-RRSS[CFGKRIDRIGHYSGLGC]PSFRHGSPSSGAPPPS-NH2] | 149000 pM | 6360 pM | 6020 pM | 621 pM
4 | EKXRSSCFGKRIDRIGHYSGLGCPSFRHGSPSSGAPPPS (N-terminus acylated with HOOC-(CH2)18-CO-(γGlu)-; (AEEA)8 after EKEKEKG; βAla; thioacetal linkage between the two bracketed Cys; C-terminal amide) [HOOC-(CH2)18-CO-(γGlu)-EKEKEKG-(AEEA)8-EK-βAla-RSS[CFGKRIDRIGHYSGLGC]PSFRHGSPSSGAPPPS-NH2] | – | 11200 pM | – | 497 pM
5 | EKPRSSCFGKRIDRIGHYSGLGCPSFRHGSPSSGAPPPS (N-terminus acylated with HOOC-(CH2)18-CO-(γGlu)-; (AEEA)6 after EKEKEKG; thioacetal linkage between the two bracketed Cys; C-terminal amide) [HOOC-(CH2)18-CO-(γGlu)-EKEKEKG-(AEEA)6-EKPRSS[CFGKRIDRIGHYSGLGC]PSFRHGSPSSGAPPPS-NH2] | 150000 pM | 3770 pM | 6380 pM | 490 pM
6 | EKXRSSCFGKRIDRIGHQSGLGCPSFRHGSPSSGAPPPS (N-terminus acylated with HOOC-(CH2)18-CO-(γGlu)-; (AEEA)8 after EKEKEKG; βAla; thioacetal linkage between the two bracketed Cys; C-terminal amide) [HOOC-(CH2)18-CO-(γGlu)-EKEKEKG-(AEEA)8-EK-βAla-RSS[CFGKRIDRIGHQSGLGC]PSFRHGSPSSGAPPPS-NH2] | 696000 pM | 25400 pM | 10000 pM | 542 pM
7 | SXRRSSCFGKRIDRIGHQSGLGCPSFRHGGKSSGAPPPS (N-terminus acylated with HOOC-(CH2)18-CO-(γGlu)-; PEG24 after EKEKEKG; 4Pal; thioacetal linkage between the two bracketed Cys; C-terminal amide) [HOOC-(CH2)18-CO-(γGlu)-EKEKEKG-PEG24-S-4Pal-RRSS[CFGKRIDRIGHQSGLGC]PSFRHGGKSSGAPPPS-NH2] | 276000 pM | 16800 pM | 2560 pM | 488 pM
8 | EKPRSSCFGKRIDRIGHYSGLGCPSFRHGSPSSGAPPPS (N-terminus acylated with HOOC-(CH2)18-CO-(γGlu)-; PEG24 after EKEKEKG; thioacetal linkage between the two bracketed Cys; C-terminal amide) [HOOC-(CH2)18-CO-(γGlu)-EKEKEKG-PEG24-EKPRSS[CFGKRIDRIGHYSGLGC]PSFRHGSPSSGAPPPS-NH2] | 80200 pM | 4850 pM | 5170 pM | 736 pM
9 | EKPRSSCFGKRIDRIGHYSGLGCPSFRHGSPSSGAPPPS (N-terminus acylated with HOOC-(CH2)18-CO-(γGlu)-; (AEEA)8 after EKEKEKG; thioacetal linkage between the two bracketed Cys; C-terminal amide) [HOOC-(CH2)18-CO-(γGlu)-EKEKEKG-(AEEA)8-EKPRSS[CFGKRIDRIGHYSGLGC]PSFRHGSPSSGAPPPS-NH2] | 147000 pM | 3990 pM | 9550 pM | 902 pM
10 | SXRRSSCFGKRIDRIGHYSGLGCPSFRHGSPSSGAPPPS (N-terminus acylated with HOOC-(CH2)18-CO-(γGlu)-; PEG24 after EKEKEKG; 4Pal; thioacetal linkage between the two bracketed Cys; C-terminal amide) [HOOC-(CH2)18-CO-(γGlu)-EKEKEKG-PEG24-S-4Pal-RRSS[CFGKRIDRIGHYSGLGC]PSFRHGSPSSGAPPPS-NH2] | 100000 pM | 5650 pM | 2830 pM | 726 pM
11 | {C20 diacid-γGlu}-EKEKEKGEKPRSSCFGKRIDRIGHQSGLGCPSFRHGSGSPSSGAPPPSG-NH2 (bridge 14-30 via thioacetal) [HOOC-(CH2)18-CO-(γGlu)-EKEKEKGEKPRSS[CFGKRIDRIGHQSGLGC]PSFRHGSGSPSSGAPPPSG-NH2] | 816000 pM | 2160 pM | 37600 pM | 392 pM

Source: patent US20240174727A1, “LONG-ACTING NATRIURETIC PEPTIDES AND USES THEREOF” (Eli Lilly and Company, priority 2022, published 2024)
